Results reported in PMC2744670 (2009).

Target: T1, CCR1 (Homo sapiens, UniProt P32246)
T1 chain: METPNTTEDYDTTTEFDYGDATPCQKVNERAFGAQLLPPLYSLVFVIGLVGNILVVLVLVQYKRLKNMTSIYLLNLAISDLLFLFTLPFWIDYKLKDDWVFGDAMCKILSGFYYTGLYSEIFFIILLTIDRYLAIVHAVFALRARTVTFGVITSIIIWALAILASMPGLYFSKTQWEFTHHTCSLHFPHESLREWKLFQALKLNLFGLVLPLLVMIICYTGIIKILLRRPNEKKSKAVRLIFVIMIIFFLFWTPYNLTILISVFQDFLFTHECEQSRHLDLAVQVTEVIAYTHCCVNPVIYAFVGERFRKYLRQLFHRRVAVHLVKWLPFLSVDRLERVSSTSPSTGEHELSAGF
Experiment: competition binding with [125I]CCL3 on transfected COS-7 cells

B1: U83A (protein)
chain: FICSSPDAELFSEKSRMSSSVLLGCLLCCMDWSAAVPGKTEPFRKLFDAIMIKKLKSCSAAYPSDLDEGSMCDMADASPTSLELGLSKLDKES
  IC50: 0.4 nM
